Experimental data as given in article PMC12475165 (Nature Communications, 2025).

Molecular target: T1, EDC4 (endogenous, EBOV-infected cells) (UniProt Q6P2E9 1-1401)
T1 sequence: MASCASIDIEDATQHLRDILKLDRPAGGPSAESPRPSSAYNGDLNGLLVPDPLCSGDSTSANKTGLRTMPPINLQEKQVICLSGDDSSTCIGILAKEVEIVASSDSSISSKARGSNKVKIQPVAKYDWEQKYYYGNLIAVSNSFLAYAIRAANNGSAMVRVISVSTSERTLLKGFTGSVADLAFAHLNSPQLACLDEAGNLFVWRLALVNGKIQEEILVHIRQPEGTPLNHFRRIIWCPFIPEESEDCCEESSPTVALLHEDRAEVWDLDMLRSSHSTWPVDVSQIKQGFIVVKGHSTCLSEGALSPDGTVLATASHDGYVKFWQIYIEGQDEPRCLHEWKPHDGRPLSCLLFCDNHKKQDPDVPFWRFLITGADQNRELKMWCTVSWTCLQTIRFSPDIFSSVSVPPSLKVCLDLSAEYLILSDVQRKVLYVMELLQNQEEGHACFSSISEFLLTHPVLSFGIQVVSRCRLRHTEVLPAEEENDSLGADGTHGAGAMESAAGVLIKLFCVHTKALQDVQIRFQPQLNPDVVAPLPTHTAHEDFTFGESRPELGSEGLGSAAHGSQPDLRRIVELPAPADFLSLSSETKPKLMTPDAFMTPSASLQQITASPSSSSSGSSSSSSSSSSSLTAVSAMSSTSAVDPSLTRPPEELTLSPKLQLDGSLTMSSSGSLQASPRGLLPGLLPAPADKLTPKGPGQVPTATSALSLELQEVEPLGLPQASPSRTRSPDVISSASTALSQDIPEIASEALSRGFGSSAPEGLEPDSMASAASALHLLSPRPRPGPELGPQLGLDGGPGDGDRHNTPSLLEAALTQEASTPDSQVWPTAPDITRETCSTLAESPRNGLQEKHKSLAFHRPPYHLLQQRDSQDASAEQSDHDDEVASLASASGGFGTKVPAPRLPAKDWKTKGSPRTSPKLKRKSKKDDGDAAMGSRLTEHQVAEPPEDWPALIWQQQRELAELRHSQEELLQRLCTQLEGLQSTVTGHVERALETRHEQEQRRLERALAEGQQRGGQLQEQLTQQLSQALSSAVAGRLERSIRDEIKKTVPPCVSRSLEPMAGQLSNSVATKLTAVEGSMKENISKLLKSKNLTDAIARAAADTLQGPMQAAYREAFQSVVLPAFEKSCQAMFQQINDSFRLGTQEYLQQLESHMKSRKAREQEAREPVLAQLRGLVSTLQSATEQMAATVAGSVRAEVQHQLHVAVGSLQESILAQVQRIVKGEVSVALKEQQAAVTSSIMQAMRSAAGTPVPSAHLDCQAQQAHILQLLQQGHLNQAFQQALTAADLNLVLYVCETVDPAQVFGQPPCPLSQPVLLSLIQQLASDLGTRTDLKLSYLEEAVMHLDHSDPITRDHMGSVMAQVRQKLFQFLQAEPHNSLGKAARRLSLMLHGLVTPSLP
Assay: proximity ligation
Conditions: partners not purified

B1: VP35 made by EBOV in infected cells (natural protein)
chain: MTTRTKGRGHTAATTQNDRMPGPELSGWISEQLMTGRIPVSDIFCDIENNPGLCYASQMQQTKPNPKTRNSQTQTDPICNHSFEEVVQTLASLATVVQQQTIASESLEQRITSLENGLKPVYDMAKTISSLNRVCAEMVAKYDLLVMTTGRATATAAATEAYWAEHGQPPPGPSLYEESAIRGKIESRDETVPQSVREAFNNLNSTTSLTEENFGKPDISAKDLRNIMYDHLPGFGTAFHQLVQVICKLGKDSNSLDIIHAEFQASLAEGDSPQCALIQITKRVPIFQDAAPPVIHIRSRGDIPRACQKSLRPVPPSPKIDRGWVCVFQLQDGKTLGLKI
PLA puncta per cell, fold over uninfected cells: 6 fold
